Experimental data from the DeepSol protein solubility set.

test: soluble on expression in E. coli; label from the status in PepcDB or PDB records

Sequence | soluble on expression in E. coli
LSEKEFFMSRAIKLAKLGWGKTNPNPLVGAVVVKDGKIIAEGYHKQLGGPHAEVEAFNNAKEDVAGGTLYVNLEPCSHYGRTPPCAQKIIDVGIKKVVAAIKDPNPKVSGRGFEMLKNAGIEVEVGVLEEEAIRLNEIFITYIVKKKPFVILKTAMTLDGKIATASGDSKWVTGEKARNHVHVIRDRVAAVMVGINTVLKDNPYLTTRLPDKEGSDPVRIVVDSKGSIPLDSNVINSNSKAGVILATTSRIDKEKEKMLIDKGVKIIKADGSDGRVDLKLLMDELYKLEIDSVLLEGGGTLNSSAISAGIVDKVMCFISPKIVGGENAPTSVEGIGALRMCEAIGVKNISVVKFGEDILLEGYIE | soluble
MAALRNGLEGSSEETSFHDESLQDDREEIENNSYHMHPAGIILTKVGYYTIPSMDDLAKITNEKGECIVSDFTIGRKGYGSIYFEGDVNLTNLNLDDIVHIRRKEVVVYLDDNQKPPVGEGLNRKAEVTLDGVWPTDKTSRCLIKSPDRLADINYEGRLEAVSRKQGAQFKEYRPETGSWVFKVSHF | soluble
MSLDKLNAISIFCKVIETQSFTLAAKQQNISVAMASKLVSQLEEHLKTRLLQRTTRKIMPTEAGMMYYQRCQGILLDLDEADSSITQLTSSLQGNLLISVPRDFGLLFIAPNLPTFMAKHPHLHIEVEFNDKKIDLLSEGYDLALRIGYMEDSSLVSRKIGTTTVHFAASPNYLETNGIPQTPDDLEHHNGLLYKNAMNQVNWVGSRINQTQRFKIQSKVVSNSGFALLNMAKAGLGIANLPKFILGRAFEKGELIEILPEYKQQKLEIHVVYPNRRHLPIKVTGISLNFEGHHHHHH | not soluble
MHESIQMIIDRIDHLVLTVSDISTTIRFYEEVLGFSAVTFKQNRKALIFGAQKINLHQQEMEFEPKASRPTPGSADLCFITSTPINDVVSEILQAGISIVEGPVERTGATGEIMSIYIRDPDGNLIEISQYVLEHHHHHH | not soluble
MPYPIEEKLVIGVASSALFDLSVSDDIYQTQGVEAYRQHQEQNLDEPFPRGVALPFIRRFLSINKAFPDQLPVEVVLLSRNSPETGLRVFRSISHYQLDITRAAFMSGRSPYEYIPAFNASLFLSANEEDVQKAIDANYPAGRVLPTRIYDDEIDTELRVAFDFDGVIADDEAESVYKRNDNLDDFQEHERMHKSTPHSPGPLADLYRKLSRIRMLEDRKLAEDPTYQRILRIAIVTARNAPSHERVVTTLKDWGVSPDECFFLGGMDKPRVLSILKPHVFFDDQRTHLQSPAGNLPMVHVPFGVANRVRSPQAPDVKQDQLPISASSCMPLEHHHHHH | soluble
MLTRLNRSFVQAARSMYIQVQETPNPLSLKFLPGQQLLPDASKTYDFSSAATAKQSPLAIKLLRVDGVKRVFFGEDFVTVTKSDETVDWALLRPEIFSTIADHIQTGKPVINEAATVSDQVEEDDEVVMMIKEILETRIRPMVQEDGGDITYVGFDDGVVKLKMQGSCTGCPSSGVTLKNGIENMLTFYVPEVKEVIEVKDESDDLVEQELKKFEQSKGIKD | not soluble
MHILVVGVDYKSAPIEIREKVSFQPNELAEAMVQLKEEKSILENIIVSTCNRTEIYAVVDQLHTGRYYIKKFLADWFQLSKEELSPFLTFYESDAAVEHLFRVACGLDSMVIGETQILGQVRDSFKTAQQEKTIGTIFNELFKQAVTVGKRTHAETDIGSNAVSVSYAAVELAKKIFGNLSSKHILILGAGKMGELAAENLHGQGIGKVTVINRTYLKAKELADRFSGEARSLNQLESALAEADILISSTGASEFVVSKEMMENANKLRKGRPLFMVDIAVPRDLDPALNDLEGVFLYDIDDLEGIVEANMKERRETAEKVELLIEETIVEFKQWMNTLGVVPVISALREKALAIQSETMDSIERKLPHLSTREKKLLNKHTKSIINQMLRDPILKVKELAADADSEEKLALFMQIFDIEEAAGRQMMKTVESSQKVHSFKKAESKAGFSPLVSE | not soluble
GGKDYPFARFNKTVQVPVYSEQEYQLYLHDDAWTKAETDHLFDLSRRFDLRFVVIHDRYDHQQFKKRSVEDLKERYYHICAKLANVRAVPGTD | soluble
GMKFSKFGQKFTQPTGISQLMDDLGDALKSDQPVNMLGGGNPAKIDAVNELFLETYKALGNDNDTGKANSSAIISMANYSNPQGDSAFIDALVGFFNRHYDWNLTSENIALTNGSQNAFFYLFNLFGGAFVNEHSQDKESKSVDKSILLPLTPEYIGYSDVHVEGQHFAAVLPHIDEVTHDGEEGFFKYRVDFEALENLPALKEGRIGAICCSRPTNPTGNVLTDEEMAHLAEIAKRYDIPLIIDNAYGMPFPNIIYSDAHLNWDNNTILCFSLSKIGLPGMRTGIIVADAKVIEAVSAMNAVVNLAPTRFGAAIATPLVANDRIKQLSDNEIKPFYQKQATLAVKLLKQALGDYPLMIHKPEGAIFLWLWFKDLPISTLDLYERLKAKGTLIVPSEYFFPGVDVSDYQHAHECIRMSIAADEQTLIDGIKVIGEVVRELYDNK | soluble
MSGWPRIYYKLLNLPLSILVKSKSIPAEPAQELGLDTSRPIMYVLPYNSKADLLTLRAQCLAHDLPDPLEPLEIDGALLPRYVFIHGGPRVFTYYTPKEESVKLFHDYLDLHRSNPALDVQMVPVSVMFGRAPGREKGEDNPPLRMLNGVQKFFAISWLGRDSFVRFSPSVSLRRMADEHGTDKIIAQKLARVARMHFARQRLAAVGPRLPARQDLFNKLLASKAIARAVEDEARSKKISHEKAQQNAIALMEEIAANFSYEMIRLTDRILGFTWNRLYQGINVHNAERVRQLAHDGHEIVYVPCHRSHMDYLLLSYVLYHQGLVPPHIAAGINLNFWPAGPIFRRLGAFFIRRTFKGNKLYSTVFREYLGELFSRGYSVEYFVEGGRSRTGRLLDPKTGTLSMTIQAMLRGGTRPITLVPIYIGYEHVMEVGTYAKELRGATKEKESLPQMLKGLSKLRNLGQGYVNFGEPMPLMTYLNQHVPEWRESIDPIEAIRPAWLTPTVNSIAADLMVRINNAGAANAMNLCCTALLASRQRSLTREQLTEQLDCYLDLMRNVPYSTDSTVPAASAGELIAHALQMNKFEVEKDTIGDIIILPREQAVLMTYYRNNIAHMLIMPSLMAAIITQHRRISRDALQQHVEALYPMLKAELFLRWEREELASVIDALASEMQRQGLITLQDDELHINPTHSRTLQLLAAGARETLQRYAITFWLLSANPSINRSTLEKESRTVAQRLSVLHGINAPEFFDKAVFSSLVLTLRDEGYISDTGDAEPAETMKIYQMLADLITSDVRLTIESATQGE | not soluble
DLGTQFLKIGIVKPGIPMDIALNTESRRKTPNVVMIQDGHRTFADAAIGMQVRYPHLVHGQLNDLVGKSTQHPSFELFKRRNTFFEVDDAPKNASSINFKLGGESYTVEALTAMILANAKKFTEEYAQAAEIKDVVITVPVYFTPAERLAVERAAQMAGLTVLQLINDGTAAALSHGIFRRKEIGEKPQRLMVYDMGAAKTTATIVEFKLVKEKYEKQPKMTVLGVGFDRTLGGIEMTNRLRDHLIEMFEKNYKPKTKVNTNRRAMTKFSKEAERLKQVLSANAEHFAQIESAHEDIDAKLKVTREDFNHLISDMESRFGEPIEQALRMAQIPIDDIDQFVLMGAGTRVPKVQEIVQKTIGTKEIGKFLNTDEAVAMGALFQAAHLSKGFKVKPFNIEEKVIFPVEVHFVSKIRDEKTEEITGEKNVVKTLFAANSVYPTHPKTISLTSYSDDFSVALKYGKIESFTKQQVQEIGSLLDNLVDVEISGLSEALKNRSSEESEFKGVKVSFIVDASGIVRVRRAEALFEPKSGLVGSIASTISGLFSSKTEEGEPTTDDSTPQSTEEKTEEKESVKVEDSTPEPEPETPVNSTSEESPKTNETEKNASSGNATEVKEKKKELPSIVRLRITNKYPSAFVPNKYDVQEEKRRMEAFAEKERLASERAAVENELESFNFECSQYLEETEFTDYMADEEKTKLEDSVKRIRAWLEDDVTKDTPTKDFTDNLLELKNVVRSVKKRQEHDKAVPEKLKSLETLLETTFSLTTLGNNVDEEKALFKKEDRDGLKSKLDKLKIWVTDVRKHLDLKKKTDDFNFTGKDIDTKTKNLNREVDRFMKKMKKITTLDDLAKDGKIDIDTIVEEAEKKKAEQDKKKEKKSTKKANESKVENESEIKTEL | not soluble
MSDTADSLSARGIPKSELIEDVESWLTKEKLSIEEAEVVLREKYGKYKYVESSMLAQKVRMSEKIPEFENSLSIIDTLIAKRAADESFETTFLLSDDVYTKATVQKPEKVSIWLGANVMVEYDLENARKLLDKNRGSVQKVVDELTNELSYIKDQITTTEVNMSHIVNFGVNKRRAALAVNNGAK | not soluble
VTDMNPDIEKDQTSDEVTVETTSVFRADFLSELDAPAQAGTESAVSGVEGLPPGSALLVVKRGPNAGSRFLLDQAITSAGRHPDSDIFLDDVTVSRRHAEFRLENNEFNVVDVGSLNGTYVNREPVDSAVLANGDEVQIGKFRLVFLTGPKQGEDDGSTGGP | soluble
MKVNKALTIAGSDSGGGAGIQADLKTFQELGVYGMTAITAITAQNTLGVQGVYPVSLEGITEQLNSIGTDLTPDAVKIGMLFSSEIIQIVAEYINKFGWNNIVLDPVMIAKGGASLLQQEAVQALKEYLLPVATVITPNVPEAEVLTGLEIHNIEDSKEAAKVLHELGAKYVLMKGGHAEYQGNEVIDLLFDGEKFIEFRSERIPSKQTHGSGCTFASAVTAGLAKGYSMEEAVQEAKRFISIAIEEPLHIGSGHGPTNHFAYKMNKAQV | not soluble
MHHHHHHSSGVDLGTENLYFQSMGNKYIQQTKPLTLERTINLYPLTNYTFGTKEPLYEKDSSVAARFQRMREEFDKIGMRRTVEGVLIVHEHRLPHVLLLQLGTTFFKLPGGELNPGEDEVEGLKRLMTEILGRQDGVLQDWVIDDCIGNWWRPNFEPPQYPYIPAHITKPKEHKKLFLVQLQEKALFAVPKNYKLVAAPLFELYDNAPGYGPIISSLPQLLSRFNFIYN | soluble
MRSSTIPAITPAYDPWEAYVDIKEYGKLQLTNIEFTTTTLCNMRCEHCAVGYTLTMKDPEALPLDMLLRRLEEIPHLRSLSITGGEPMLSLKSVEQYVVPLLRYAHERGVRTQLNSNLTLDLSRYEPVIPYLDVLHISHNWGTVDDFVEGGFAMMERKPTRAQREKYFQRMLDNAKALANAGVMVSAETMLNKRTVRHLEAIHRQVVEEMGCQRHEIHPMYPSDFASALETLSLDELREAIHHLLDIRDENVWMLFGTLPFYPCSDNEEDVRLLKRLYESKNVTVRNDPDGRSRLNVNIFTGDVIVTDFGDEPPLGNIIHDSLPDVYDKWRRSKLARELLCHCPSARCLGPNVLVKQTYYRGVDFTKRSARIGR | not soluble
MSHLDNGFRSLTLQRFPATDDVNPLQAWEAADEYLLQQLDDTEIRGPVLILNDAFGALSCALAEHKPYSIGDSYISELATRENLRLNGIDESSVKFLDSTADYPQQPGVVLIKVPKTLALLEQQLRALRKVVTPDTRIIAGAKARDIHTSTLELFEKVLGPTTTTLAWKKARLINCTFNEPPLADAPQTVSWKLEGTDWTIHNHANVFSRTGLDIGARFFMQHLPENLEGEIVDLGCGNGVIGLTLLDKNPQAKVVFVDESPMAVASSRLNVETNMPEALDRCEFMINNALSGVEPFRFNAVLCNPPFHQQHALTDNVAWEMFHHARRCLKINGELYIVANRHLDYFHKLKKIFGNCTTIATNNKFVVLKAVKLGRRR | soluble
MKKMLLATALALLITGCAQQTFTVQNKQTAVAPKETITHHFFVSGIGQKKTVDAAKICGGAENVVKTETQQTFVNGLLGFITLGIYTPLEARVYCSK | soluble
